The values below come from patent US20040005687A1, “Kinase crystal structures” (priority 2001, published 2004).

In general, Kd refers to a measure of binding affinity in units of concentration.

In data set [1] the target is T1, pΔPH-PKB-ΔC (PKBβ residues 146 to 460, phosphorylated in vitro on Thr-309) (Homo sapiens, UniProt P31751).
T1 construct: pΔPH-PKB-ΔC (residues 146 to 460, phosphorylated in vitro on Thr-309); 6xHis (pFastBacHTa, TEV-cleavable) (N, cleaved yes); made in house; host or cells: Sf9 insect cells / baculovirus
Briefly: Protein kinase B assay, peptide stimulation of pΔPH-PKB-ΔC (Crosstide substrate). The note with it: for maximal fold induction at 600 µM: read-out: maximum activation (fold stimulation) of pΔPH-PKB-ΔC kinase activity; for fold lower affinity than PIFtide (from EC50 values): relative to PIFtide. The data set is classed as biochemical. The protocol: To test the model that Ser 474 phosphorylation promotes an interaction between the hydrophobic motif and the induced hydrophobic groove of the N-terminal lobe, thereby causing an allosteric activation of the kinase, the ability of peptides modelled on the hydrophobic motif of PKB to activate the enzyme via an intermolecular association with the N-terminal lobe was assessed.
(§1) PKB was assayed essentially as described by Andjelkovic et al. (1999) with 30 μM Crosstide (GRPRTSSAEG) as substrate except the protein kinase A inhibitor peptide was not added to the reactions. For peptide stimulation experiments the various peptides were dissolved in water and added to the kinase assay mix prior to adding the PKB protein. Peptides were synthesized by Franz Fischer at the FMI or purchased from Neosystem, Strasburg, France.
(§2) All experiments were performed in either duplicate or triplicate.

The target in data set [2] is T2, ΔPH-PKB phosphorylated on Thr 309 (Homo sapiens, UniProt P31751).
T2 construct: ΔPH-PKBβ (residues 146-481) on Thr309 Using PDK1; 6xHis (pFastBacHTa, TEV-cleavable) (N, cleaved yes); made in house; host or cells: Sf9 insect cells / baculovirus
Briefly: Protein kinase B assay, peptide stimulation of ΔPH-PKB phosphorylated on Thr 309. The format is biochemical. Here is the method: as §1, §2

The target of data set [3] is T3, His tagged pΔPH-PKB-ΔC wild type (Homo sapiens, UniProt P31751).
T3 construct: pΔPH-PKB-ΔC (residues 146 to 460, phosphorylated in vitro on Thr-309); His tag; made in house; host or cells: HEK cells (transient expression), purified on Ni-NTA
In words: PIFtide responsiveness of His tagged pΔPH-PKB-ΔC wild type expressed in HEK cells. The data set is classed as biochemical. The protocol:
To test the notion that a hydrophobic groove is induced in PKB to engage the hydrophobic motif, and activate the kinase, a series of His tagged pΔPH-PKB-ΔC hydrophobic groove mutants was prepared and their responsiveness to PIFtide assessed. PKB mutants were transiently expressed in HEK cells, phosphorylated in vitro with PDK1, and purified using Ni-NTA agarose.
Wild type PKB prepared using this procedure was stimulated ˜5-fold by 130 μM PIFtide (FIG. 6B).
as §1

Data set [4] deals with T4, ΔPH-PKB-ΔC (PKBβ residues 146 to 460, not phosphorylated on Thr-309) (Homo sapiens, UniProt P31751).
T4 construct: ΔPH-PKB-ΔC(residues 146 to 460, not phosphorylated on Thr-309); 6xHis (pFastBacHTa, TEV-cleavable) (N, cleaved yes); made in house; host or cells: Sf9 insect cells / baculovirus
Briefly: Protein kinase B assay, peptide stimulation of ΔPH-PKB-ΔC with unphosphorylated Thr 309. The format is biochemical. The protocol:
as §1, §2

In data set [5] the target is T5, ΔPH-PKB phosphorylated on both Thr 309 and Ser 474 (Homo sapiens, UniProt P31751).
T5 construct: ΔPH-PKBβ (residues 146-481) on Thr309 Using PDK1; 6xHis (pFastBacHTa, TEV-cleavable) (N, cleaved yes); made in house; host or cells: Sf9 insect cells / baculovirus
In words: Protein kinase B assay, peptide stimulation of ΔPH-PKB phosphorylated on both Thr 309 and Ser 474. The format is biochemical. The protocol:
as §1, §2

The target of data set [6] is pΔPH-PKBβ-ΔC (human PKBβ residues 146-460, phosphorylated in vitro on Thr-309) (human) (UniProt P31751). Briefly: isothermal titration calorimetry, PIFtide titrated into the kinase domain. (In general: In ITC the heat of successive injections is recorded.)
Data set [7] has as its target ΔPH-PKBβ-ΔC (human PKBβ residues 146-460, not phosphorylated on Thr-309) (human) (UniProt P31751). The data set is described as above.
Data set [8] shares this target. In words: isothermal titration calorimetry.
In data set [9] the target is His tagged pΔPH-PKB-ΔC V194A-V198A mutant (human) (UniProt P31751). In words: cell-based or functional assay.
Data set [10] concerns the target His tagged pΔPH-PKB-ΔC, wild type, expressed in HEK cells (human) (UniProt P31751). Briefly: cell-based or functional assay.
Data set [11] deals with ΔPH-PKB (human PKBβ residues 146-481) phosphorylated on Thr 309 (human) (UniProt P31751). Briefly: cell-based or functional assay.
Data set [12] concerns the target pΔPH-PKBβ-ΔC (human PKBβ residues 146-460, phosphorylated in vitro on Thr-309) (human) (UniProt P31751). Briefly: cell-based or functional assay.
The target is the same in data set [13]. In words: cell-based or functional assay. The source holds these as a separate data set.

Read-outs that look alike come from different tables or passages of the source. Square brackets hold non-standard residues; d marks the D form. Ends that are not written are not given here. Peptide text beside a SMILES is read from it. pS = N[C@@H](COP(=O)(O)O)C(=O)O

T1 sequence (P31751 146-460, stated change not applied): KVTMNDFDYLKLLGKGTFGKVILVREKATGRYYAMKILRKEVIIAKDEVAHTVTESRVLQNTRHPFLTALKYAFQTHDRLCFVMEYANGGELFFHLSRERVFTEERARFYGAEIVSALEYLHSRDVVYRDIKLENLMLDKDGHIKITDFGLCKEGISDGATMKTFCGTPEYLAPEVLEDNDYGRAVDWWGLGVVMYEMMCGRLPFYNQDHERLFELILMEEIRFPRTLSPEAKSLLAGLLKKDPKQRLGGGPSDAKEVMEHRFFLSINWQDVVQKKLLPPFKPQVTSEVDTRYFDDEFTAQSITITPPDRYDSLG
T3 sequence (P31751 146-460, stated change not applied): as above
T2 sequence (P31751 146-481, stated change not applied): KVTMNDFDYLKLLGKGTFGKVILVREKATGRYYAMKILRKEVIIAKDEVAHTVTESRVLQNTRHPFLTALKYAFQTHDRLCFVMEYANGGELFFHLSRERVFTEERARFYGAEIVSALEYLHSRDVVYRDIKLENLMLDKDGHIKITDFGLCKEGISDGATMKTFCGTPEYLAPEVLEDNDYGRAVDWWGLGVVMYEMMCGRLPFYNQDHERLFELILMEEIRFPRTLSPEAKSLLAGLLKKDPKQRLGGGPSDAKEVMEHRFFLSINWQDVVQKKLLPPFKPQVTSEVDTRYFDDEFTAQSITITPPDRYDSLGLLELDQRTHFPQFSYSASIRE
T5 sequence (P31751 146-481, stated change not applied): as above
T4 sequence (P31751 146-460, stated change not applied): as the sequence (P31751 146-460, stated change not applied) above
Chain of His tagged pΔPH-PKB-ΔC, wild type, expressed in HEK cells (human) (P31751 146-460, stated change not applied): as above
Chain of His tagged pΔPH-PKB-ΔC V194A-V198A mutant (human) (P31751 146-460 V194A/V198A): as the sequence (P31751 146-460, stated change not applied) above, with V49A, V53A counted along it

For `CC[C@H](C)[C@H](NC(=O)[C@H](CO)NC(=O)[C@H](C)NC(=O)[C@H](CO)NC(=O)[C@H](Cc1ccc(O)cc1)NC(=O)[C@H](CC(=O)O)NC(=O)[C@H](Cc1ccccc1)NC(=O)[C@H](CCC(N)=O)NC(=O)[C@@H]1CCCN1C(=O)[C@H](Cc1ccccc1)NC(=O)[C@H](Cc1c[nH]cn1)NC(=O)[C@@H](NC(=O)[C@H](CCCNC(=N)N)NC(=O)[C@H](CCC(N)=O)NC(=O)[C@H](CC(=O)O)NC(=O)[C@H](CC(C)C)NC(=O)[C@H](CCC(=O)O)NC(=O)[C@H](CC(C)C)NC(=O)[C@H](CC(C)C)NC(=O)CN)[C@@H](C)O)C(=O)N[C@@H](CCCNC(=N)N)C(=O)N[C@@H](CCC(=O)O)C(=O)O` [PKB HM-D] (H-GLLELDQRTHFPQFDYSASIRE-OH; N-terminus and C-terminus assumed), in data set [1], the maximal fold induction at 600 µM was 3 and the “fold lower affinity than PIFtide (from EC50 values)” value was around 1000 fold.

For `CC[C@H](C)[C@H](NC(=O)[C@H](Cc1ccc(O)cc1)NC(=O)[C@H](CC(=O)O)NC(=O)[C@H](Cc1ccccc1)NC(=O)[C@H](CC(=O)O)NC(=O)[C@H](CCCNC(=N)N)NC(=O)[C@H](Cc1ccccc1)NC(=O)[C@H](CCSC)NC(=O)[C@H](CCC(=O)O)NC(=O)[C@H](CCC(N)=O)NC(=O)[C@H](CCC(=O)O)NC(=O)[C@H](CCC(=O)O)NC(=O)[C@H](CCC(=O)O)NC(=O)[C@H](CO)NC(=O)[C@H](CC(C)C)NC(=O)[C@@H](NC(=O)[C@H](CCCNC(=N)N)NC(=O)[C@@H]1CCCN1C(=O)[C@H](CCC(=O)O)NC(=O)[C@@H](N)CCCNC(=N)N)[C@@H](C)CC)C(=O)N[C@@H](C)C(=O)N[C@@H](CC(=O)O)C(=O)N[C@@H](Cc1c[nH]c2ccccc12)C(=O)O` [PIFtide, reference compound] (H-REPRILSEEEQEMFRDFDYIADW-OH; N-terminus and C-terminus assumed), the maximal fold induction at 600 µM in data set [1] is 15. Moreover, in data set [2], the “activation of ΔPH-PKB phosphorylated on Thr 309” value came out at 5 fold. The fold induction at 130 µM in [3] (read-out: stimulation of wild type PKB prepared from HEK cells) was around 5.

With “MFRDFDYIADW [PIFtide1, 11-residue peptide encompassing the six-residue hydrophobic motif of PIFtide]”, the “activation of pΔPH-PKB-ΔC by modified PIFtide and HM peptides (in words)” value in [1] (PIFtide concentrations 210-250 μM, PKB HM-peptide up to 1.2 mM, FIG. 6A) is given as “essentially recapitulates the activation”.

For the molecule GLLELDQRTHFPQFSYSASIRE [PKB HM-S], the “stimulation of pΔPH-PKB-ΔC kinase activity (in words)” value in data set [1] (Crosstide substrate, dose response FIG. 5) is on record as “did not stimulate”.

Take `CC[C@H](C)[C@H](NC(=O)[C@H](CO)NC(=O)[C@H](C)NC(=O)[C@H](CO)NC(=O)[C@H](Cc1ccc(O)cc1)NC(=O)[C@H](COP(=O)(O)O)NC(=O)[C@H](Cc1ccccc1)NC(=O)[C@H](CCC(N)=O)NC(=O)[C@@H]1CCCN1C(=O)[C@H](Cc1ccccc1)NC(=O)[C@H](Cc1c[nH]cn1)NC(=O)[C@@H](NC(=O)[C@H](CCCNC(=N)N)NC(=O)[C@H](CCC(N)=O)NC(=O)[C@H](CC(=O)O)NC(=O)[C@H](CC(C)C)NC(=O)[C@H](CCC(=O)O)NC(=O)[C@H](CC(C)C)NC(=O)[C@H](CC(C)C)NC(=O)CN)[C@@H](C)O)C(=O)N[C@@H](CCCNC(=N)N)C(=O)N[C@@H](CCC(=O)O)C(=O)O` [PKB HM-P, GLLELDQRTHFPQFpSYSASIRE] (H-GLLELDQRTHFPQF[pS]YSASIRE-OH; N-terminus and C-terminus assumed): the maximal fold induction at 600 µM in data set [1] came to 4. The “fold lower affinity than PIFtide (from EC50 values)” value in [1] (listed as phosphorylated HM-peptide) is reported as around 1000 fold. Besides, the “activation of ΔPH-PKB-ΔC with unphosphorylated Thr 309 (in words)” value in data set [4] is listed as “unable to activate”. Also, the “further activation of ΔPH-PKB phosphorylated on both Thr 309 and Ser 474 (in words)” value in data set [5] is reported as “did not further activate”. Further, in data set [3], the “activation of wild type PKB prepared from HEK cells (in words)” value is listed as “did not elicit measurable activation”.

On to PIFtide (peptide), for which the dissociation constant Kd in [6] turned out to be 6 µM. The molecule also displayed an equilibrium dissociation constant (Kd) in [7] of 5.5 µM. In data set [8], this molecule came in with an enthalpy change (ΔH) of -16 kcal/mol and an entropy term (TΔS) of -9.2 kcal/mol. Moreover, the PIFtide activation relative to wild type (% of wild type) in data set [9] came out at 25. In [10], the stimulation of kinase activity by 130 µM PIFtide was 5 fold. Further, in [11], the stimulation of kinase activity towards Crosstide came to 5 fold. Also, in data set [12], the EC50 of kinase activation turned out to be 3 µM, the peptide concentration giving maximum activation was found to be 20 µM, the specific activity when maximally activated by PIFtide was 350 nmol/min/mg and the stimulation of kinase activity towards Crosstide turned out to be 15 fold.

Regarding GLLELDQRTHFPQFDYSASIRE [PKB HM-D], in data set [13], the EC50 of kinase activation (estimated from FIG. 5A) was 3600 µM; the fold lower affinity than PIFtide, from estimated EC50 is 1000 fold; the stimulation of kinase activity towards Crosstide stood at 3 fold.

GLLELDQRTHFPQF[pS]YSASIRE [PKB HM-P]: in data set [13], the EC50 of kinase activation (estimated from FIG. 5A) is 2300 µM; the fold lower affinity than PIFtide, from estimated EC50 was 1000 fold; the stimulation of kinase activity towards Crosstide is 4 fold.
